Experiments:
kmt5a_human KMT5A [1] = molecular target: T1, kmt5a_human KMT5A (UniProt Q9NQR1)
T1 sequence: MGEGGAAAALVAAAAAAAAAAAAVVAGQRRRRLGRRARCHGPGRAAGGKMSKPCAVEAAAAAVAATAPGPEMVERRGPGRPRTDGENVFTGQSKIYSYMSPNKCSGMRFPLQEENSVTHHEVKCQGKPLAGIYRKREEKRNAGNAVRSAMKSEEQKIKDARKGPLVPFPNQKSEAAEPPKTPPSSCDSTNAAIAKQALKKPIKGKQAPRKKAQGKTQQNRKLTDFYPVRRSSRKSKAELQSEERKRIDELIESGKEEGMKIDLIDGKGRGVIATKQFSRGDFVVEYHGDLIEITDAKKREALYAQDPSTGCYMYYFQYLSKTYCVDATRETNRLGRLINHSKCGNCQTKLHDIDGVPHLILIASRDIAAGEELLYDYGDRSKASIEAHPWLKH

kmt5a_human KMT5A [2] = molecular target: T1, kmt5a_human KMT5A; remark: listed apart in the source

Substance | effect of a mutation on the interaction (kmt5a_human KMT5A [1]) | effect of a mutation on the interaction (kmt5a_human KMT5A [2])
Histone H4 (Homo sapiens) (from UniProt P62805) H19A | decreasing interaction | 
Histone H4 (Homo sapiens) (from UniProt P62805) H19Q |  | decreasing interaction
Histone H4 (Homo sapiens) (from UniProt P62805) H19Y |  | decreasing interaction

From IntAct's records for PubMed 15933069
